Source: paper PMC3618430 (PLoS ONE, 2013)
Substitutions are numbered along the chain they refer to.

B1: A3 Fab displayed on phage (Fab, V domains shown)
VH: QVTLKESGPGILKPSQTLSLTCSFSGFSLSTSGMGVGWIRQSSGKGLEWLANIWWDDDKYYNPSLKSQLTISKDTSRNQVFLKITSVDTADTATYYCARRGEYDAMDYWGQGTSVTVSS
VL: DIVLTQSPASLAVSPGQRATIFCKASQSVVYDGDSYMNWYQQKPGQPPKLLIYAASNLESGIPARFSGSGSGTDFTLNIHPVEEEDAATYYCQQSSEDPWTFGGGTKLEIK
notes: also called clone A3; Fab-phage A3; source: E. coli TG-1 with helper phage KM13, phage PEG-precipitated
B2: D4 Fab displayed on phage (Fab, V domains shown)
VH: B1 VH with S30N, S42P, Q68H, R77G, T92S, E102D, A105S, M106L
VL: DIVLTQSPGSLSVSLGQRATISCKASQSVDYDGDSYMNWYQQKPGQPPKLLIYAASNLESGIPARFSGSGSGTDFTLNIHPVEEEDAATYYCQQSSEDPWTFGGGTKLEIK
notes: also called clone D4; Fab-phage D4; source: E. coli TG-1 with helper phage KM13, phage PEG-precipitated
B3: A4 Fab displayed on phage (Fab, V domains shown)
VH: B1 VH with S42P, E102K, A105S
VL: B2 VL with G9A, S12A, V13M, D30V
notes: also called clone A4; Fab-phage A4; source: E. coli TG-1 with helper phage KM13, phage PEG-precipitated
B4: D8 Fab displayed on phage (Fab, V domains shown)
VH: B1 VH with S32P, S42P, A90T, E102N
VL: B2 VL with G9A, S12A, V13M, D30V
notes: also called clone D8; Fab-phage D8; source: E. coli TG-1 with helper phage KM13, phage PEG-precipitated

Each binder was assayed against recombinant A/Turkey/1/2005 (H5N1) HA (Influenza A virus …, UniProt Q207Z6, strain) (assay: ELISA). Conditions: one partner purified.

Binder	binding result
B1	binds
B2	binds
B3	binds
B4	binds

The binders below were run against T1, bovine serum albumin (Bos taurus, UniProt P02769) (assay: ELISA). Conditions: one partner purified.
T1 construct: also called BSA
T1 sequence (P02769 25-607): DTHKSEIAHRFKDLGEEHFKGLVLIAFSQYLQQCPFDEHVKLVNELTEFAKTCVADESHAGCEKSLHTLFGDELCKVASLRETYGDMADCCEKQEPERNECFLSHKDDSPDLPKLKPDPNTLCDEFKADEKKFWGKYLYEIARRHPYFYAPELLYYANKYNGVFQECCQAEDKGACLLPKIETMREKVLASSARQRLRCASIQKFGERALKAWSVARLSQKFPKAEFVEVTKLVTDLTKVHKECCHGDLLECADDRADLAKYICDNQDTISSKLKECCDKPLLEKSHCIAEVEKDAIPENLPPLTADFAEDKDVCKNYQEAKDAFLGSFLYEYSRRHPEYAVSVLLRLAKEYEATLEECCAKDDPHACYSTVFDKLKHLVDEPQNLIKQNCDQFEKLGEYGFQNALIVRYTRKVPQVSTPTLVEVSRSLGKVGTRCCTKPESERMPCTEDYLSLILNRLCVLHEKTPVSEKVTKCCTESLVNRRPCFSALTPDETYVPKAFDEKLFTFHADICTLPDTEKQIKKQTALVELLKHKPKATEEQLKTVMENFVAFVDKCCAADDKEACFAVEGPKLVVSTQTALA

Binder	binding result
B1	no binding
B2	no binding
B3	no binding
B4	no binding

Each binder was assayed against recombinant A/Netherlands/219/03 (H7N7) HA (Influenza A virus …, UniProt Q6VMK1, strain) (assay: ELISA). Conditions: one partner purified.

Binder	binding result
B1	no binding
B2	no binding
B3	no binding
B4	no binding

These binders were tested against recombinant A/Anhui/1/05 (H5N1) HA (Influenza A virus A/Anhui/1/2005 (H5N1), UniProt Q1WDM0, strain) (assay: ELISA). Conditions: one partner purified.

Binder	binding result
B1	binds
B2	binds
B3	binds
B4	binds

Each binder was assayed against T2, recombinant A/California/04/2009 H1N1 HA (Influenza A virus A/California/04/2009 …, UniProt C3W5S1, strain) (assay: ELISA). Conditions: one partner purified.
T2 construct: source: bought: Sino Biological Inc

Binder	binding result
B1	no binding
B2	no binding
B3	no binding
B4	no binding
